Assay results published in paper doi:10.1101/2025.07.08.663703, “Recruitment of Mre11 to recombination sites during meiosis” (bioRxiv, 2025).

B1: Mre11-ΔC49: Mre11 with C-terminal 49 residues (residues 644–692) deleted (protein, UniProt P32829 1-643, looked up, fragment)
chain: MDYPDPDTIRILITTDNHVGYNENDPITGDDSWKTFHEVMMLAKNNNVDMVVQSGDLFHVNKPSKKSLYQVLKTLRLCCMGDKPCELELLSDPSQVFHYDEFTNVNYEDPNFNISIPVFGISGNHDDASGDSLLCPMDILHATGLINHFGKVIESDKIKVVPLLFQKGSTKLALYGLAAVRDERLFRTFKDGGVTFEVPTMREGEWFNLMCVHQNHTGHTNTAFLPEQFLPDFLDMVIWGHEHECIPNLVHNPIKNFDVLQPGSSVATSLCEAEAQPKYVFILDIKYGEAPKMTPIPLETIRTFKMKSISLQDVPHLRPHDKDATSKYLIEQVEEMIRDANEETKQKLADDGEGDMVAELPKPLIRLRVDYSAPSNTQSPIDYQVENPRRFSNRFVGRVANGNNVVQFYKKRSPVTRSKKSGINGTSISDRDVEKLFSESGGELEVQTLVNDLLNKMQLSLLPEVGLNEAVKKFVDKDEKTALKEFISHEISNEVGILSTNEEFLRTDDAEEMKALIKQVKRANSVRPTPPKENDETNFAFNGNGLDSFRSSNREVRTGSPDITQSHVDNESRITHISQAESSKPTSKPKRVRTATKKKIPAFSDSTVISDAENELGDNNDAQDDVDIDENDIIMVSTDEEDA
B2: Mre11^IDR: eGFP-tagged Mre11-IDR (524-677) (protein, UniProt P32829 524-677, looked up, fragment)
chain: NSVRPTPPKENDETNFAFNGNGLDSFRSSNREVRTGSPDITQSHVDNESRITHISQAESSKPTSKPKRVRTATKKKIPAFSDSTVISDAENELGDNNDAQDDVDIDENDIIMVSTDEEDASYGLLNGRKTKTKTRPAASTKTASRRGKGRASRT
modifications: eGFP tag
B3: Mre11 (protein)
chain: MDYPDPDTIRILITTDNHVGYNENDPITGDDSWKTFHEVMMLAKNNNVDMVVQSGDLFHVNKPSKKSLYQVLKTLRLCCMGDKPCELELLSDPSQVFHYDEFTNVNYEDPNFNISIPVFGISGNHDDASGDSLLCPMDILHATGLINHFGKVIESDKIKVVPLLFQKGSTKLALYGLAAVRDERLFRTFKDGGVTFEVPTMREGEWFNLMCVHQNHTGHTNTAFLPEQFLPDFLDMVIWGHEHECIPNLVHNPIKNFDVLQPGSSVATSLCEAEAQPKYVFILDIKYGEAPKMTPIPLETIRTFKMKSISLQDVPHLRPHDKDATSKYLIEQVEEMIRDANEETKQKLADDGEGDMVAELPKPLIRLRVDYSAPSNTQSPIDYQVENPRRFSNRFVGRVANGNNVVQFYKKRSPVTRSKKSGINGTSISDRDVEKLFSESGGELEVQTLVNDLLNKMQLSLLPEVGLNEAVKKFVDKDEKTALKEFISHEISNEVGILSTNEEFLRTDDAEEMKALIKQVKRANSVRPTPPKENDETNFAFNGNGLDSFRSSNREVRTGSPDITQSHVDNESRITHISQAESSKPTSKPKRVRTATKKKIPAFSDSTVISDAENELGDNNDAQDDVDIDENDIIMVSTDEEDASYGLLNGRKTKTKTRPAASTKTASRRGKGRASRTPKTDILGSLLAKKRK
modifications: left off: Gal4 activation domain (from the vector pGAD-C1), end not stated, kept
B4: Mer2-EQEK: Mer2 with residues E50, Q54, E57, and K61 mutated to alanine (protein)
chain: MVARGRTDEISTDVSEANSEHSLMITETSSPFRSIFSHSGKVANAGALEASDKAILAWAGALELESMELRENSDKLIKVLNENSKTLCKSLNKFNQLLEQDAATNGNVKTLIKDLASQIENQLDKVSTAMLSKGDEKKTKSDSSYRQVLVEEISRYNSKITRHVTNKQHETEKSMRCTQEMLFNVGSQLEDVHKVLLSLSKDMHSLQTRQTALEMAFREKADHAYDRPDVSLNGTTLLHDMDEAHDKQRKKSVPPPRMMVTRSMKRRRSSSPTLSTSQNHNSEDNDDASHRLKRAARTIIPWEELRPDTLESEL
modifications: left off: His, end not stated, kept | SUMO, end not stated, kept
notes: Mer2 with residues E50, Q54, E57, and K61 mutated to alanine

Assays:
plasmid DNA (pUC19) = experiment: In vitro condensation of Mre11 truncations with plasmid DNA; conditions: eGFP-tagged protein, 200 nM Mre11 for ΔIDR and ΔC49
Description: Proteins were diluted to a 10× stock of their appropriate working concentrations in their respective storage buffers. Reactions were performed in a buffer containing 25 mM HEPES-HCl (pH 7.5), 2 mM DTT, 1 mg/ml BSA, 5% glycerol, 5 mM MgCl2, 5% PEG-3350, and NaCl. Considering the salt contributed by the protein dilution buffer, final concentration of NaCl in a reaction was adjusted to 120 mM. Unless specified otherwise, all reactions contained 400 nM ^Alexa488Mre11 or 100 nM ^eGFPMRX. A typical 20 μL binding reaction contained 2 μL protein of 10× stock of indicated concentration, 10 μL of 2× reaction buffer, and 150 ng of supercoiled pUC19 (5.7 nM). Typical reactions were assembled at 30°C for 30 mins with gentle mixing every 5 mins, unless mentioned otherwise. 5 μL was dropped onto a microscope slide and covered with a coverslip. All images were captured on a Zeiss Axio Observer with a 100×/1.4 NA oil immersion objective except for images provided in Figure 4G which were captured on Leica Stellaris DMI 8 confocal microscope with a 63x/1.2 NA water immersion objective. Images were analyzed with ImageJ using a custom-made script. […] Masked foci were counted and the intensity inside the focus mask was integrated. […] Data were analyzed using Graphpad Prism 10.4.0.

pUC19 plasmid = experiment: Gel shift assay of Mre11 and truncations; format: binding
Description: Proteins were diluted to their appropriate working concentrations in their respective storage buffers. […] Reactions were assembled at 30°C for 30 mins and resolved in a 1% agarose (SeaKem LE Agarose, Lonza) at 60 V for 120 mins at 4°C. Gels were stained with SYBR Gold Nucleic Acid Gel Stain (S11497, Invitrogen) for 40 mins and visualized with Amersham Typhoon biomolecular imager (Cytiva).

Mer2 [1] = experiment: In vitro colocalization of Mre11 with Mer2 condensates; format: binding, S. cerevisiae; conditions: 200 nM Alexa594Mer2 and eGFPMre11, assembled separately on DNA then mixed 1:1 for 30 min
Description: Proteins were diluted to a 10× stock of their appropriate working concentrations in their respective storage buffers. […] Unless specified otherwise, all reactions contained 400 nM ^Alexa488Mre11 or 100 nM ^eGFPMRX. A typical 20 μL binding reaction contained 2 μL protein of 10× stock of indicated concentration, 10 μL of 2× reaction buffer, and 150 ng of supercoiled pUC19 (5.7 nM). Typical reactions were assembled at 30°C for 30 mins with gentle mixing every 5 mins, unless mentioned otherwise. 5 μL was dropped onto a microscope slide and covered with a coverslip. All images were captured on a Zeiss Axio Observer with a 100×/1.4 NA oil immersion objective except for images provided in Figure 4G which were captured on Leica Stellaris DMI 8 confocal microscope with a 63x/1.2 NA water immersion objective. Images were analyzed with ImageJ using a custom-made script. In brief, 129.24 × 129.24-μm (2048 × 2048-pixel) images were thresholded to mean intensity of the background plus three times the standard deviation of the background. Masked foci were counted and the intensity inside the focus mask was integrated. Data points represent averages of at least 8–10 images per sample. Data were analyzed using Graphpad Prism 10.4.0.

Mer2 [2] = experiment: Co-expression NiNTA pulldown of MBP-Mre11-C49 (prey) with HisSUMO-Mer2 (bait); format: binding, S. cerevisiae; conditions: co-expression in E. coli, anti-MBP elution/input signal normalized to wild type, at least seven independent samples
From the text: The vector for expression of ^MBPMre11-C49 and ^HisSUMOMer2 (pCCB1040) was based on a pET-Duet1 vector with the sequence coding for ^MBPMre11-C49 cloned within the first position (SacI site) and the sequence coding for ^HisSUMOMer2 cloned at the second position (XhoI site). The EQEK mutations and LLK mutations were introduced by PCR amplification of pCCB1040 with primers cb1561 and cb1562, and pp84 and pp85, followed by phosphorylation and self-ligation to yield plasmids pry59 and pry61, respectively.
Wild-type and mutant MBP-tagged Mre11-C49 and HisSUMO-tagged Mer2 were co-expressed in 50 mL of E. coli BL21 cultures and purified by affinity chromatography on Ni-NTA resin following a procedure similar to that described above. Briefly, cells were lysed by sonication and centrifuged at maximum speed for 30 mins at 4°C on a table-top centrifuge. A small fraction of the supernatant was collected as ‘Input’ and the remainder was incubated with 120 μL Ni-NTA resin, pre-equilibrated with wash buffer (25 mM HEPES pH 7.5, 20 mM imidazole, 0.1 mM DTT, 0.1 mM PMSF, 10% glycerol), for 1 hour on a rotating wheel at 4°C. The resin was washed twice with 2 ml in batch and five times with 2 ml on column before eluting with 250 μL of 500 mM imidazole in wash buffer. […]

Molecule	condensate formation in vitro (plasmid DNA (pUC19))	species of reduced electrophoretic mobility (pUC19 plasmid; 1 nM pUC19, higher protein concentration)	colocalization with Mer2 (Mer2 [1])	DNA binding (pUC19 plasmid; 1 nM pUC19, 25 mM HEPES pH 7.5, 5 mM EDTA, 100 mM NaCl, 30°C 30 min, two independent experiments for truncations)	interaction of Mre11-C49 and Mer2 in pulldown (anti-MBP immunoblot) (Mer2 [2])
B1	strongly reduced Mre11 foci intensity	absent	strongly reduced colocalization as compared to wild-type Mre11		
B2	failed to form condensates			reduced DNA binding as compared to the WT or Mre11^ΔIDR	
B3			nearly absolute colocalization		
B4					strongly decreased the interaction between the two partners
